Test results as given in patent US20060257955.

Biological target: T1, labeled peptide ecot2 (T2), Dabcyl-KVSRRRRRGGD-Edans (not fully specified)
T1 chain: KVSRRRRRGGD

B1: E. coli outer membrane protease OmpT (protein)
chain: STETLSFTPDNINADISLGTLSGKTKERVYLAEEGGRKVSQLDWKFNNAAIIKGAINWDLMPQISIGAAGWTTLGSRGGNMVDQDWMDSSNPGTWTDESRHPDTQLNYANEFDLNIKGWLLNEPNYRLGLMAGYQESRYSFTARGGSYIYSSEEGFRDDIGSFPNGERAIGYKQRFKMPYIGLTGSYRYEDFELGGTFKYSGWVESSDNDEHYDPGKRITYRSKVKDQNYYSVAVNAGYYVTPNAKVYVEGAWNRVTNKKGNTSLYDHNNNTSDYSKNGAGIENYNFITTAGLKYTF
protease assay (cleavage of substrate T2, relative fluorescence), buffer with 5% fetal bovine serum: detection of the presence of E. coli in the E. coli sample occurred in the presence of FBS
protease assay (cleavage of substrate T2, relative fluorescence), simulated wound fluid buffer with 5% bovine serum albumin: the protease reactivity of the E. coli sample was not affected by the simulated wound fluid buffer
